Experimental data reported in PMC11574021, “CEP192 localises mitotic Aurora-A activity by priming its interaction with TPX2” (The EMBO Journal, 2024).
“And” between values parts separate entries of the source, which are not always exact repeats. Equal entries are not always repeated. Where no end group is shown, it is not given here. FAM = 5(6)-carboxyfluorescein

What was measured:
[1] = biological target: Aurora-A; settings: fluorescence binding; ref Park et al. (2023) Figure 3B; cited from earlier work
Source text: page 11: cycle control) in these cell lines is still useful. […] As for combined depletion of CEP192 and TPX2, this was very toxic in both U251 and RPE1 cells, unsurprising given that both proteins are essential for proliferation.

[2] = biological target: T1, Aurora-A^M7KD (Aurora-A 122–403 D274N C290A C393A N332A Q335A T347A D350A) (human, UniProt O14965 122-403, D274N | C290A | C393A | N332A | Q335A | T347A | D350A); assay: fluorescence polarisation; direct fluorescence anisotropy: Aurora-A diluted across the plate, 50 nM tracer FAM-CEP192 501–533; 25 mM HEPES pH 7.5, 150 mM NaCl, 2 mM DTT, 5 mM MgCl2, 0.01% Tween 20; 1 h at room temperature; settings: both partners purified
T1 construct: Aurora-A kinase domain, human, residues 122-403, with crystal-contact mutations in the C-lobe; also called Aurora-A^M7KD-D; Aurora^M7KD; source: E. coli, purified; not shown: His6, N-terminal, cleaved
T1 sequence (looked up): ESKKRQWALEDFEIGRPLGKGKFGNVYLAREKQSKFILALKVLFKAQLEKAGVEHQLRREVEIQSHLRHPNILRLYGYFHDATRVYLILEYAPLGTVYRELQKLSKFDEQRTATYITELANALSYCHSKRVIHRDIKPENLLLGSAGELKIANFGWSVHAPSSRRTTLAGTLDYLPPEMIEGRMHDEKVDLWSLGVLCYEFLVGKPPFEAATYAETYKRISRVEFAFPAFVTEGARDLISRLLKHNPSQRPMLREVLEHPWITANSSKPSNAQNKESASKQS

[3] = biological target: T2, Aurora-A^CAKD (Aurora-A kinase domain, aa 122–403 C290A, C393A), unphosphorylated (human, UniProt O14965 122-403, C290A | C393A); assay: as above; settings: both partners purified
T2 construct: Aurora-A kinase domain, human, residues 122-403, variant lacking surface cysteines; also called Aurora-A 122–403 C290A C393A; unphosphorylated Aurora-A^CAKD; source: E. coli RIL, co-expressed with lambda phosphatase, purified (HisTrap, TEV cleavage, SEC); not shown: His6, N-terminal, cleaved
T2 sequence (looked up): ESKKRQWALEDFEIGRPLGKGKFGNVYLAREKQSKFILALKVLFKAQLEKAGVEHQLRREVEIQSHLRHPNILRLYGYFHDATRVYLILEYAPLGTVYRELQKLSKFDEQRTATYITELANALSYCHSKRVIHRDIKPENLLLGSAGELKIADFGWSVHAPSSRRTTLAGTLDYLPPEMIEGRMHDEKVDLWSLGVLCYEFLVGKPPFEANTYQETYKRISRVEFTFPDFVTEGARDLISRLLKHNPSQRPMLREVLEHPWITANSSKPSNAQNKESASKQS

[4] = biological target: T3, phosphorylated Aurora-A^CAKD (Aurora-A 122–403 C290A C393A, not co-expressed with lambda phosphatase) (human, UniProt O14965 122-403, C290A | C393A, phosphorylated (sites of this preparation not printed in the text shown)); assay: as above; settings: both partners purified
T3 construct: Aurora-A kinase domain, human, residues 122-403; also called phosphorylated kinase; Aurora-A 122–403 C290A C393A phosphorylated protein; source: E. coli B834, not co-expressed with lambda phosphatase, purified (HisTrap, TEV cleavage, SEC); not shown: His6, N-terminal, cleaved
T3 sequence (looked up): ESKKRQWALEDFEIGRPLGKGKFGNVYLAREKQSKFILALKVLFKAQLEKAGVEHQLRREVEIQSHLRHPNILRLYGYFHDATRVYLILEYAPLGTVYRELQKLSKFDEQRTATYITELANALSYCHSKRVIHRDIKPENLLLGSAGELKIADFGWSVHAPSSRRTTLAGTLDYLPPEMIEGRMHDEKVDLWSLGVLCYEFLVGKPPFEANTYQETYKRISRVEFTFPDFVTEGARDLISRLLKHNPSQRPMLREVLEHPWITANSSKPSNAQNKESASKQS

[5] = biological target: T2, Aurora-A^CAKD (Aurora-A kinase domain, …); assay: ITC; 250 μM Aurora-A in the syringe, 25 μM CEP192 construct in the cell; 25 °C; 20 mM tris pH 7.5, 200 mM NaCl, 10% glycerol, 5 mM MgCl2; settings: both partners purified
[6] = biological target: T3, phosphorylated Aurora-A^CAKD (Aurora-A …); assay: as above; settings: both partners purified
[7] = biological target: T2, Aurora-A^CAKD (Aurora-A kinase domain, …); assay: fluorescence polarisation; competition: 25 μM Aurora-A kinase domain preincubated with 100 nM FAM-TACC3 522-536, CEP192 competitor serially diluted; 25 mM HEPES pH 7.5, 150 mM NaCl, 2 mM DTT, 5 mM MgCl2, 0.01% Tween 20; settings: both partners purified
[8] = biological target: T3, phosphorylated Aurora-A^CAKD (Aurora-A …); assay: cell-based or functional assay
[9] = biological target: T2, Aurora-A^CAKD (Aurora-A kinase domain, …); assay: fluorescence polarisation; competition: 10 μM unphosphorylated Aurora-A^CAKD preincubated with 100 nM FAM-TPX2 7-43, CEP192 competitor serially diluted; 25 mM HEPES pH 7.5, 150 mM NaCl, 2 mM DTT, 5 mM MgCl2, 0.01% Tween 20; settings: both partners purified
[10] = tested on: His-tagged Aurora-A 122-403 or full-length (1-403); assay: Pull-down of Aurora-A by GST-tagged CEP192; format: binding, human; settings: Aurora-A 122-403 and 1-403, western blot
Method: GST-tagged CEP192 constructs were overexpressed in LB and purified on glutathione resin using standard methods. Tagged proteins were eluted in 100 mM TRIS pH 7.5, 500 mM NaCl, 1 mM DTT, 10% Glycerol, 10 mM reduced glutathione, before dialysis in elution buffer without glutathione and storage at −80 °C. About 250 μg of GST-tagged CEP192 constructs or GST as a control were immobilised on 50 μl of glutathione resin (GE healthcare) per sample equilibrated in pull-down buffer (50 mM tris pH 7.5, 300 mM NaCl, 1 mM DTT, 5 mM magnesium chloride, 10% glycerol, 0.1% Tween 20). After 60 min of immobilisation the beads were washed three times in 900 μl of binding buffer to remove any excess protein. About 35 μg of His-tagged Aurora-A 122–403 or full-length protein (1–403) was added to samples of immobilised truncation or GST control. These were left to bind for 60 min on the roller. The beads were pelleted and washed three times in 900 μl of binding buffer. The resin was resuspended in 100 μl of SDS loading dye. After separation on an SDS-PAGE gel, these were transformed onto nitrocellulose membranes before probing with anti-GST and anti-His primary antibodies.

FAM-CEP192 506-536: labelled peptide of Park et al 2023
Kd [1]: 700 nM

B1: FAM-CEP192 501–533 (peptide, UniProt Q8TEP8 501-533, looked up)
peptide: {FAM}-SDEMNEDFRSGSEAFDLIAQDEEEFNKEHQFIQ
notes: Made on Rink amide resin and labelled on resin after synthesis, so N-terminal label and C-terminal amide are likely; MS data of the peptides are in the source data; source: synthetic peptide
Kd [2]: 1250 nM | Kd [3]: 420 nM and 1170 nM | Kd [4]: 370 nM

B2: human CEP192 468–533 (domain or fragment, UniProt Q8TEP8 468-533, looked up)
chain: PQSVVYQNEEGRWVTDLAYYTSFNSKQNLNVSLSDEMNEDFRSGSEAFDLIAQDEEEFNKEHQFIQ
notes: also called CEP192_(506-527_F); source: E. coli B834 RIL, purified (HisTrap, TEV cleavage, SEC); for crystallisation co-expressed with Aurora-A^M7KD and co-purified; not shown: His6, N-terminal, cleaved; SUMO, N-terminal, cleaved
Kd [5]: 80.6 nM | Kd [6]: 134 nM | IC50 [7]: 5 µM | ADP-Glo, 10 nM phosphorylated Aurora-A^CAKD with kemptide: IC50 of partial inhibition of kinase activity [8]: 18 nM | IC50 [9]: 3.7 µM

B3: CEP192 405-649: GST-tagged CEP192 fragment 405-649 (protein, UniProt Q8TEP8 405-649, looked up, fragment)
chain: HMDGCLDTETPTVSIQENVDVASLKPISDSGINFTDAIWSPTCERRTCECHESIEKNKDKTDLPQSVVYQNEEGRWVTDLAYYTSFNSKQNLNVSLSDEMNEDFRSGSEAFDLIAQDEEEFNKEHQFIQEENIDAHNTSVALGDTSWGATINYSLLRKSRSTSDLDKDDASYLRLSLGEFFAQRSEALGCLGGGNNVKRPSFGYFIRSPEKREPIALIRKSDVSRGNLEKEMAHLNHDLYSGDLN
modifications: GST tag
co-precipitation of Aurora-A [10]: able to interact significantly with Aurora
